T1: ABH2 R172A (human, UniProt Q6NS38 1-261, R172A)
T1 sequence: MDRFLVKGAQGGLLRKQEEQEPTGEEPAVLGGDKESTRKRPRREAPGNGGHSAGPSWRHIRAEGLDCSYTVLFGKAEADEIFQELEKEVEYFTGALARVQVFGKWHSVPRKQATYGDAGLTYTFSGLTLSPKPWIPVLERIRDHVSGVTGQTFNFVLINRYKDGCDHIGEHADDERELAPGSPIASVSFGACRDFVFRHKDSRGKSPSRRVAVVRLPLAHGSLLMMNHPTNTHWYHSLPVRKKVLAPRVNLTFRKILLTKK

T2: ABH2 V99A (human, UniProt Q6NS38 1-261, V99A)
T2 sequence: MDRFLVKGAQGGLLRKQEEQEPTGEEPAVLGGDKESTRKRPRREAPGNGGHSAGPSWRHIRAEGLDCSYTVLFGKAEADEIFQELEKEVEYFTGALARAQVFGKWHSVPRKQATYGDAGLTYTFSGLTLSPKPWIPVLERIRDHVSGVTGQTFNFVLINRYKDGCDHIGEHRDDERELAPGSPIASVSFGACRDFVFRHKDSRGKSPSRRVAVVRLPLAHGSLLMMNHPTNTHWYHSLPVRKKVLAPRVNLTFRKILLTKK

T3: ABH2 R110A (human, UniProt Q6NS38 1-261, R110A)
T3 sequence: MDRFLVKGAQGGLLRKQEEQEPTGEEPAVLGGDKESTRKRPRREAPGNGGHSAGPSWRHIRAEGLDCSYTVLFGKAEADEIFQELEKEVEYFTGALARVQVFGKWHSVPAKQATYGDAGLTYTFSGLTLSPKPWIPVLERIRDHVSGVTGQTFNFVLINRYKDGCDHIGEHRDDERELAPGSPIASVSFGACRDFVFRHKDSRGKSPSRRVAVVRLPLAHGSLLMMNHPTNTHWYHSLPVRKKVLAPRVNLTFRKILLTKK

T4: ABH2 E175A (human, UniProt Q6NS38 1-261, E175A)
T4 sequence: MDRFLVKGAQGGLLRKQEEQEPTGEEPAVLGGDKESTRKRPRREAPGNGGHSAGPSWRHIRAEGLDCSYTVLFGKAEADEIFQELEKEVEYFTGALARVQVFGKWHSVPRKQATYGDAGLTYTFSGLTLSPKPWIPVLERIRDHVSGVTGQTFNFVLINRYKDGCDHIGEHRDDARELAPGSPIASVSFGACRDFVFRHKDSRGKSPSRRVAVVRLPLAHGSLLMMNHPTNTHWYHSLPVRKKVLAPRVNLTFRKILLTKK

T5: ABH2 S125A (human, UniProt Q6NS38 1-261, S125A)
T5 sequence: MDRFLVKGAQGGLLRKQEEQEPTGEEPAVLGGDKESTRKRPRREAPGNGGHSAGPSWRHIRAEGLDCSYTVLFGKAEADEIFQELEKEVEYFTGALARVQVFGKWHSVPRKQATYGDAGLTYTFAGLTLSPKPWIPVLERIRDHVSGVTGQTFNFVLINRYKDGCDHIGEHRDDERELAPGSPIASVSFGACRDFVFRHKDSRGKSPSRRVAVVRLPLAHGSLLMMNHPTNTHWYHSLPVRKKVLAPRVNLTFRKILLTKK

T6: ABH2 F124A (human, UniProt Q6NS38 1-261, F124A)
T6 sequence: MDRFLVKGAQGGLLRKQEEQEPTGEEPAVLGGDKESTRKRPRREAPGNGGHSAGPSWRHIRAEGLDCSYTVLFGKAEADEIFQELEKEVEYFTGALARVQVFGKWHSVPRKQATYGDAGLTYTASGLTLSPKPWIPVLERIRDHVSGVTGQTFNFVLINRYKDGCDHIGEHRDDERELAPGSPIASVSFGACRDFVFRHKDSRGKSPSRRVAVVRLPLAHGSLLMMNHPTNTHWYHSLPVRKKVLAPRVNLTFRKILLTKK


What was measured:
Assay in all cases: EMSA; 0.5 mM αKG, 10 mM Mg2+, 2 mM ascorbate; 50 mM Tris-HCl pH 8.0, 50 mM KCl, 10 mM MgCl2, 0.5 mM αKG, 2 mM sodium ascorbate; 1.2 µM DNA, 0.4-12.8 µM protein; 10 min 37 °C then 5 min on ice; 10% native PAGE, 0.5x TBE, 4-8 °C; Hill fit
Details in all cases: protein: recombinant; tags: N-terminal His6; label: 5'-FAM on strand 1; blunt
ABH2 R172A = biological target: T1, ABH2 R172A
ABH2 V99A = biological target: T2, ABH2 V99A
ABH2 R110A = biological target: T3, ABH2 R110A
ABH2 E175A = biological target: T4, ABH2 E175A
ABH2 S125A = biological target: T5, ABH2 S125A
ABH2 F124A = biological target: T6, ABH2 F124A

Binder	Kd (ABH2 R172A)	Kd (ABH2 V99A)	Kd (ABH2 R110A)	Kd (ABH2 E175A)	Kd (ABH2 S125A)	Kd (ABH2 F124A)
m3C dsDNA (dsDNA, N3-methylcytosine (m3C) at position 12 of strand 1) DNA 1: AGTTCAATGATCTTCAT DNA 2: ATGAAGATCATTGAACT	2.6 ± 0.4 µM	2.5 ± 0.6 µM	4 ± 0.3 µM	2.96 ± 0.04 µM	4 ± 0.3 µM	4.4 ± 0.7 µM
m1A dsDNA (dsDNA, N1-methyladenine (m1A) at position 10 of strand 1) DNA 1: AGTTCAATGATCTTCAT DNA 2: ATGAAGATCATTGAACT	2.1 ± 0.08 µM	3.2 ± 0.3 µM	3.4 ± 0.2 µM	2.44 ± 0.06 µM	2.7 ± 0.3 µM	3.1 ± 0.3 µM

— article PMC12295762, “Role of Individual Amino Acid Residues Directly Involved in Damage Recognition in Active Demethylation by ABH2 Dioxygenase”
